Results as given in the NTF2 design screens of Basanta et al. (2020).

Assay: protease stability score; higher = more stable; yeast display proteolysis, trypsin and chymotrypsin;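 note: relative to predicted unfolded state with 0 unfolded-like and 1 meaning tenfold more protease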

Sequence	protease stability score
DEDTEKVERIAKEVINLHETGDWENWSKQADPHTRVELNVDGQHFEYIGREKFREALEWLGIKHSHFHHIEIIGDKLHVDGYSFFNGRRTRVELRFVIVNGRIKHQIIIIK	0.848
DEEHEEVERMWERFIKYYLTGNEELFDHLADPNVRLIIGDKIAIGREEVRKLWERRRREIRIRHMNFHSVRWYDGRIDLEVEVNLDVNGREIKTEQRIHIKVINGRVKDVEIRVE	0.743
DEDRESEEKAIKTWWHMVETGDEKLFKKLADPDTKMVINGVEKHGMETVHEFLNRVDHIRQFDIEDHRFYNGRLELHIRVDVEFNGRRHETERRVIASKVNGRWLLKEVIVH	0.689
DEREEFVLSMAELWIHAVLTGDEELERQLIDPHARNNINGRTIHGMEMFNKFWIRLLQEIRFEIEIRRFHIQGEKMHFDGVLRLRYDGREEVLRVHVEIVIVDGRLHEVHIKIK	1.33
DERTHHLEQLYRRMYEHWETGDEKFHRELLDPHARVDINGQDVHGMHWIEEEMRMQREHIRIEHVIIKSIEIVDGKIHMNGIILGDINGRRVNVEVRFHVIIINGKARLVEVKIL	0.025
DELKTDFENAIRLYEHATKTGDEHEIRKLLDPHVRVDINGREHHGMEHYSDLLHEFLKRLGADHIQFEFKDSHLQGNKLHLHGIIHVHVGDKTHTIDSSVIYEKVDGRWIISSVWYR	1.01
SEEDDQAEEFARKMITDFLTGNWKKMMDLFDPNVRLRWHVDGRDKHHIGREVVSEILRRYVEEIRIHSISIESVENYDGVSIVHSHYEWEVNGQKRETHVLLEFVIINGRARSISIHIH	1.11
DEEDEQAKELSRIMMEVLRTGDEDMFTKLLDPNVRLEIGEKEDHGRERAMHWLIRFLYRIPNARFIWRDVDVHRINGRVLDTSDLQVRINGRDFKTFVITHIVKIDGRWRVTKLEVHIE	1.56
SEEEHRVKELSELMLHWFKTGDEETMDHLMDPDARFELQVGDKEVHSHGWESVHKVLRRTLFWLGADHYNDKDFKHQGDKSKIDMTVHVGDKTVEVTLHLKIVDGRLKFLEIRVK	1.16
NETEELLRRMIEDNLRAMLTGDEERIRKLADPNVRNHINGRTHVGREELAHVFHRIFEEWRIDHMTLRDSDTQGEFIILHYIFDIRFDGRRQELEVEIIFYKIDGRWILHKITFK	0.75
SEEERDVRHVFEVFERSMNTGDEKKIEDRLDPNVRIIIGDKRVHGMHWVSKVIVEMRTHFILRRIRIIGDKADIDGELELRAEGHHIHTHVIIVVHKINGRWYIEEIEIR	1.69
SEEEQLALEIARRLVRSILTGDEHEIHRLMDPHVRTNWNGQELVGREEWDRFNHEMRIHELRIREFDVEVFNGRVESRFRTETRMTFDGREVNEETKLIVILDKVDGKWHLRHVEFRIH	0.651
SDETKRLEEHLKHRFRSMVTGNEEDISRLMDPNAKLIVGDKEFHGREIVLKLLLRWAHEMRLRHEEVEEIHIIGDYVRINGILHMEVGDKSIEIHTVIIILKIDGRWRDKTEHYG	0.654
DESEEEMKKAFKDLVDSLLTGDEHLLRTFADPNMRLRIGDKTFHGRETYSEIFLKEWKKLGIKHYQVTIHHLEVQGDKIHVDTRVNVHIGDWTIHRETRLHITKVNGQWILRQEDVD	0.416
DERESFIKEVMEQFNRDLLTGDEEHFKERADPDVKIIFDGRETHGWKVLHHLLREIRIRHMHIDDYDIQGDKARVHSTADVEYGDKEDELKIEIRLVVINGRLKEVSIIFR	1.16
SEDEHLTRNLAKDTIRALETGDEDRLNELFDPDVRLEIGDFMSHGRKSFTDTLRRFKNLTLHIHDMRVIGDKVHIDGEVDWNGQRRKTEIIIVIVDGKLKQIHYNIH	0.874
SEDENILRRVVNILLHVWMTGDEDSLKELIDPHARMDFDGQEVHGREEITRLIRTILHELGIKHFELHRHHIDVQGDKAHIEVDGVDDVDGRKVKVIIRMHVLKVNGRWKTRIVYFERQ	1.65
SEEEHITKLALDMWFTSLLTGDEHTFRHLLDPNVRVHIDGREYHGREHWRDLLTYLLTHLGVDHMEFRTRDQDVVGDKITLVTEIIIHVGDKNLSFESELIVAKVDGRWRIRSEDYR	0.645
DEDERNLREFLRRMVEHWLTGNEESLKRLIDPEVRIHIGDKDLVGREEEERYHRQMRSDRLHVELDSVDIVGDKLQLHITIHIDSIVNGRRLDIKYRHTLHVRKINGRWILEESEIK	0.814
DEEEKDMRHVLKLWVNEFLTGNEKNLSELMDPNVRVDIDGKQLHGRETLSHKIVEDAREARVRLEVESIRVVNGKAHVDVVLRFHQGDKSDHREIRVVFRKVDGRWLLHSLEVH	1.37
SEDDEIKKHVAERWLKRLETGDEKTLSKLLDPDVRLHINGRTLHGREEVVHELHKWYYELGVDHVILRHIDHVNGQLRLHNEIRFENRHTSEILVITKVDGQWIVKYIEIRDH	1.53
DKEDEDMERIVKEFLHLHLTGDWKLMAELLDPDVRVEFDGKRYHGRENWSKLLEDEFRRIKNATIRIEIKHIDLQGDFARSEVVLHIIVNGVEHRHEMQIDMKVVNGRIHSIRIVRV	1.47
DEHHEEIHRLVEIFLHLELTGDEDTWRELADPTAQIHIDGRDIHGMEDVLRVWEQFKKEMGIDHIRVKDYKVQGNFMHINTELEFNGRRVDSRIEIYIYDGRIKSVIIRYR	2.25
SEDEEMARRFFEHLLHLWRTGDEEILRNLVDPDTQMQIGDKHLHGRDAVEHMIRRIDHVEVRKVRMREIRVQGDYVVIHVELDGTQEVNGKRIEQHIEFTVFVHKVDGRWIWRSIYQI	1.37
SEDDETVIRMTHIILHAIFTGDEHITERLMDPHAKVTVGEFDTHGWEELDRFWKEMRMKRLKIRRIDFRWVNGRILSEIVVELDGIVNGRERKITMLIVIIIDKIDGRWVVTEFHFRIE	1.43

Sequence	protease stability score
SEESEHEEIIAEVTLELLATGDWRTLYELFDPNVRVHVGDKRSIGREQFVKIWKEFLEKFKNVVYKFKDIKWINGVVHIHMTLEYNGRRIEVNIHNFVYDGKIEHIHIEFKHL	1.66
SEEEQDIKHFLELIERTHHTGDEKLFRDLFDPNVRLHVGDKNMHGREKALERWRLLGYEIKHLRWRDFRIFDGRVTAHGEMEGQVNGQKIKRDVEIVLVKIDGQWFIEEERVR	1.57
SEDEEYVKELADLFKELWETGDEETFMKLVDPNVRSDVNGKRVHGREEIRRVWHEVIRTLGIKYSHLRDMRIIGNKVVLDIELRVGDKRIELKVILIIVNGRMHYVELRLNEI	1.89
EEEREIHQRHWEERLRAHRTGDEETLERQADPDVRIDFNGVELHGREVAVRFLLEMRLHDVDWRRIHTFDGRVDVDVIVDGEYNGRRYRSTFTLVIIKVNGQWLVHSMEFK	0.244
DEETQNVRTILEEFVHDFETGDERLMHRYLDPNVRIDWNGRDYHGRETMFQMIRELSDKIKNIRIRIEHIDIINGVIIIHGDLHYNGKDVKTTLYFLKVNGRWLITRLEYK	1.39
SEEETRLEKYLRILLEMWKTGNEEWMFKYADPDARLQVGDKEFHGREHIMKFLKDWLDKAGVKHEEDRREEYIGDKLRVDSERNVNGVENRVILIFVVINGRYREFIIIIR	1.47
SEEEQLIRLALEWELHSEETGDEELVRENADPHVRLEINGVEVIGMELAVKILFELKEDMGIKHIELKSVDTQGDKLNIHSKYHVNGRHIDVIIISKKVNGRWRMKRIIVTIR	2.46
DEKKAKEAAHRLLEAMVTGDPRKLNENADEDVQVEYGDKSYTGREKLNEWAHEFQKRVDHVRIESIHQRGDTATVKVRVEHNGETDTFVLIVEAHNGRAKRIRQETR	1.1
DRLEELVERIAEIFLESYLTGDWKHLFDYFDPHAKLNIDGQESVGRESIQLMLEIHFKRVDHIQHFHRDDHRIQGNKFVFIGTLEGHVNGRTTRSRVKVEVTAVDGRIEELHIHIE	1.23
DEIEEVFREYTERIVDMWKTGDEELTNRNMDPNARMRIDVNGRDLELHGRERWIEHFRELGIKYEEIRDVRLRLVGDKANLEIDGEVDVNGQKHHTSLIIHVEKINGKWVISRIIFFIR	1.2
THLHDQVHKAVEDVERDLMTGNEERLYKLLDPNVRIEYNGQDLHGREIAIHFLIRISNHWRFEDLHIESMNVQGNKATIHSRYVRHIGDKREETHVHLYMVKINGQWFIHSMSFS	2.25
DENRQDLEHFHKVLLKLLETGDENMIARLADPNVREDVNGVDNHGMKDLERTLREIHERVDHIHHVHIHRVDVINGRAHLDGTLRGHVNGVSFQHRETVIYLKFNGRWVLHSVHLK	1.2
DEEEKDAIMLSEISTHLMSTGDEHETSHNADPNTRLEYGDFEFHGREEFIKIWVEQMEKVKGMTIRLHSIHVQGDKAVSHVKIHVNGVDFHIIYIAEKFNGRWQLRSSIVI	1.06
SEVQETIDHLVREVLHDFRTGDERRLEENMDPNAKSIFDGRESHGREKVSKMIHDFLEEMGFKHMELKEREVVGNKVEIHGRVIIGDKEFELHLHSQKIDGRWVLDSIRIE	0.52
DEEEHYLREYLRIVDEELHTGDEKLLAKLLDPEVRVDFNGVVNIGWETVRRHVHHIWMIFRDSKIHDVKVQGDKMIADGRVDVEIIVNGRTHRLELDTNLIFRKVNGRWVMQEIKIG	2.25
SEDEELSKYLNEEINEILRTGDEDRWKELADPNTLLIIDGREFHGMELVIHLLHHLWKRLGIDQIHSTVEDEKVQGDKIIFHHRLEYNGRESHVIIISHKFNGRWRAKRVEVN	1.43
DEDDKKAEDFANVIAHNLMTGDEEKHNKMIDPNVKIFINGQTVHGRDEFSKVMRRYKNLRIDWEVEELEIVNGQVRLKGHLHVEVNGVETRIDTHIVVTKVNGRWHMKEIYYH	1.62
TEEDHFLKRELEKYIHSILTGDEDSTQHMIDPHARVFWNGVELHGRDAITKIMREWRIRHVRIERFEVQGDKIESHSISHMEINGKKHDHIFRITSEKYDGRWVIRELSIE	1.51
DTEDHLSHRVLEYHQEVEKTGDWHELFNNIDPHARMSVGDKRYHGMESMSKWLSRIKNAKIDEEHIEIQGNKIILHGTINVDGVRIESIILSLKVDGRWLRKEVRFH	0.19
SEDEKTTKDVFREIKEILLTGDWRALERLLDPHVRFDINGQEIHGRESILEYWLEQVRRLGIDHIEIRLHHIDVQGDKIHLDVRIIYRYGDKEYREETKFVIIKIDGKWHLKEYHVD	2.11
SEEEHHDRLMTDFFIEIMRTGDEKEFIDLFDPHDRTHIDGVDAHGREIAVELLHLFLRKLGFDHIRVTDVHVYNGKVELHMRSDQGDKHVEVQIHSVVYNGKLQHLHVKIRTL	1.63
DEEKEDNKHFLKIHREDLHTGNEDSLKRLADPNARIHIGDKDYHGWEFWLTLSRELGVDHMHLIIDHVDLQGEKARIEGELEFTVGDKKHRIKTRLILEKIDGVWVYKSVTIE	1.04
DEDERDARKTSHLFLEAFTTGDEDLLRDMVDPNARSIVNGQEEHGWEVIHKTVRELQERYPNVKIDVNDWSYEVQGDKMRTILHFIIHFDGVHVEIHIHVFSRKINGRWVIRRIEYHER	2.07
DHETRWLRHVLKIWDHMVETGDWEKSERLADPNTKLVIDGVDLHGRRDYNRHMRELRVHHTEINDVELTNIGDKVHLYREVDYDITVDGRRIITHIELFLIIRKVDGRWILEEQEVNFR	0.236
QEDEKLADEVVERIAHDIHTGDEDSLRHLMDPHVRLQVGDKRYIGRESVLEFLRQLRIEVEDVKIHDIHVVNGQMHSDTRIHGRIFVNGRDIETTLRSKHILLKYDGKWLWHSWHIH	1.31
